Here are results for one molecule from patent CN108546297A (ACAD OF MILITARY SCIENCES PLA CHINA ACAD OF MILITARY …, dated 2018).

In assay [1] the target is T1, PD-1/Fc (UniProt Q15116 25-167).
T1 construct: also called PD-1/Fc抗原; PD-1/Fc融合蛋白; not shown: Fc part of the fusion
Nature of the assay: Biacore SPR: antibody captured by anti-human Fab on a CM5 chip, PD-1/Fc as analyte.

The target of assay [2] is T2, CD28/Fc (UniProt P10747 19-152).
T2 construct: not shown: Fc part of the fusion
Nature of the assay: indirect ELISA, antigen coated at 1 μg/mL, goat anti-human F(ab')2-HRP.

Assay [3] addresses T3, CTLA4/Fc (UniProt P16410 36-162, limits assumed).
T3 construct: not shown: Fc part of the fusion
T3 sequence (looked up): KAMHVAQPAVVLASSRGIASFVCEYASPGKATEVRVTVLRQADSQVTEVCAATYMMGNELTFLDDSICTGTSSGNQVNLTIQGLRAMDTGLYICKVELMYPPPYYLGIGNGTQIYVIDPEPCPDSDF
The description is as above.

Assay [4] addresses T4, BTLA/Fc (UniProt Q7Z6A9 31-157, limits assumed).
T4 construct: not shown: Fc part of the fusion
T4 sequence (looked up): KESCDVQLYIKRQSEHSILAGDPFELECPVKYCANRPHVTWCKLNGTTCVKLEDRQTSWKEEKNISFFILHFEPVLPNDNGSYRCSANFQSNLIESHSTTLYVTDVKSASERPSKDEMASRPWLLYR
Described as above.

For assay [5], the target named is T5, ICOS/Fc (UniProt Q9Y6W8 21-141).
T5 construct: not shown: Fc part of the fusion
T5 sequence (looked up): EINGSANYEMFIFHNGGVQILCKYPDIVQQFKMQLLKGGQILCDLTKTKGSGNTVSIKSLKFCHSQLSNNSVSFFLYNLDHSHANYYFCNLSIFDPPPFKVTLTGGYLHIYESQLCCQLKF
The description is as above.

T1 sequence (Q15116 25-167 limits assumed): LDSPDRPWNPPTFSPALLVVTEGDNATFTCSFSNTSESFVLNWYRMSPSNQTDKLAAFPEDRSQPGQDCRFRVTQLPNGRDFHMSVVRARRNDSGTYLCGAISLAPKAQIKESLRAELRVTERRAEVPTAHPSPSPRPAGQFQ
T2 sequence (P10747 19-152 limits assumed): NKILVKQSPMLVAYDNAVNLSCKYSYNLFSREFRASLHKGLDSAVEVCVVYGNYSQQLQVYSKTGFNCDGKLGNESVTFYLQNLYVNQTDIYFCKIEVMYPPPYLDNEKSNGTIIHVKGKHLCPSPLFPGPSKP

B1: 本发明制备的抗PD-1抗体 (anti-PD-1 monoclonal antibody of the invention) (antibody, V domains shown)
VH: QVQLVESGGGVVQPGRSLRLNCKASGITFSNSGMHWVRQAPGKGLEWVAVIWYDGSKLYYADSVKGRFTISRDNSKNTLFLQMNSLRAEDTAVYYCATDSDYWGQGTLVTVSS
VL: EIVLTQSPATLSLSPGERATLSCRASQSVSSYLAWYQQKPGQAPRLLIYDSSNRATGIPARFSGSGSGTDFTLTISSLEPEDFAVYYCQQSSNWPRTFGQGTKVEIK
notes: Variable regions cloned into the full-length antibody vector PRT/KIgG1 (IgG1 heavy constant region CH1-CH2-CH3, kappa light constant region); also called 本发明制备抗体
Regarding B1, in assay [1], the Kd is 0.328 nM. Also, the koff in assay [1] is 9.6e-05 s⁻¹. The molecule further came in with a kon in assay [1] of 292000 M⁻¹ s⁻¹. Besides, the binding result in assay [2], in assay [3], in assay [4] and in assay [5] was “no binding (tested: antibody at 1 μg/mL)” each time.
